Columns and labels:
[1] = target: T1, Myc-UEV^VPS37A (UEV domain of VPS37A only) (UniProt Q8NEZ2 23-217, [35S]-methionine radiolabel); experiment: GST pulldown of in vitro translated Myc-tagged protein (FIG. 7C)
T1 construct: domain: UEV; the legend is followed; The limits 23-217 are stated for the AlphaFold input, not expressly for the clone; also called Myc-UEV^VP37A; not shown: Myc tag
T1 sequence (looked up): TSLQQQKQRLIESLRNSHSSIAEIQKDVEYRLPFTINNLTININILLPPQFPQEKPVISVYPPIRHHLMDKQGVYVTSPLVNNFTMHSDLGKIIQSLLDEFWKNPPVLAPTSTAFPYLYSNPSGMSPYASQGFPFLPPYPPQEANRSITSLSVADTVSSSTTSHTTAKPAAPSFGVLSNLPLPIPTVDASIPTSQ
Text: (§1) 7A, Co-IP analysis of interactions between FLAG-VPS37A and GFP-LC3A and GFP-GABARAP (GABA) in HEK293T cells. 5% of input was loaded. 7B, Schematic of VPS37A full length and deletion constructs: (i) VPS37A^FL, full length, (ii) VPS37A^deltaUEV deletion of UEV (cyan), (iii) UEV^VPS37A, UEV domain only (cyan), (iv) VPS37A^{deltaN(1-90)} deletion of residues 1-90, (v) VPS37A^{deltaN(1-20)}, deletion of residues 1-20 (red), (vi) VPS37A^{Nter-EGFP}, N-ter 1-22 chimera with GFP. 7C, GST-Pull down of Myc-UEV^VP37A and Myc-VPS37AdeltaCEV with GST or GST-LC3A, GST-LC3C and GST-GABARAP, 2% of Input was loaded. 7D, Co-IP between GFP-LC3A with FLAG-VPS37A^FL, UEV^VPS37A and VPS37A^deltaCEV. 7E, VPS37AdeltaCEV AlphaFold predicted structure; sequence, 1-22 residues, N-terminus of VPS37A (red, residues predicted to contact mATG8s. 7F, Representation of AlphaFold predicted complexes (rank 1; VPS37A^deltaCEV and GABARAP). 7G,7H Co-IP analyses in HEK293T cells expressing FLAG-VPS37A and GFP-LC3A (in 7H) or GFP-GABARAP (in 7G).
GST pull-down Assay. Recombinant GST and GST-fusion proteins were produced in Escherichia coli SoluBL21 (Genlantis, #C700200) by inducing expression in overnight cultures with 50-75 μg/mL isopropyl β-D-1-thiogalactopyranoside (IPTG). Expressed proteins were purified by immobilization on Glutathione Sepharose 4 Fast Flow beads (GE Healthcare, #17-5132-01). […]

[2] = target: T2, FLAG-VPS37A (full length) (UniProt Q8NEZ2 1-397); experiment: Co-IP of FLAG-VPS37A and GFP-GABARAP in HEK293T cells (FIG. 7A)
T2 construct: Expressed in HEK293T cells for Co-IP; also called FLAG-VPS37A^FL; pDest-FLAG-VPS37A^Full; not shown: FLAG tag
T2 sequence (looked up): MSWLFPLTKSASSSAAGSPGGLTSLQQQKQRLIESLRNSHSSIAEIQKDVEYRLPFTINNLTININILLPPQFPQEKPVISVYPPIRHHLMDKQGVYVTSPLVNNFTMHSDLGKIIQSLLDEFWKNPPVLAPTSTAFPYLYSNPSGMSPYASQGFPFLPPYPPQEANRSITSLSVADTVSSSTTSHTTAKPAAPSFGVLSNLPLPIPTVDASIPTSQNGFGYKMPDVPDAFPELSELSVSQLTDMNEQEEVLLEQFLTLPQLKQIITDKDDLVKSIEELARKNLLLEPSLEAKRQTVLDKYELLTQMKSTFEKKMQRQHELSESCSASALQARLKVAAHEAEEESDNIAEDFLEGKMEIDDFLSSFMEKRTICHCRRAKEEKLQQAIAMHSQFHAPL
Text: as §1
Immunoblotting and co-immunoprecipitation assays. Immunoblotting and co-immunoprecipitation (Co-IP) were performed as described previously⁴. For Co-IP, 10 cm dish cells were transfected with 12 μg of plasmids, wherever stated, and lysed in NP-40 buffer containing protease inhibitor cocktail (Roche, cat #11697498001) and PMSF (Sigma, cat #93482). […]

GST-LC3B = GST-LC3B (UniProt Q9GZQ8 1-125); experiment: GST pulldown of in vitro translated [35S] Myc-VPS37A
Text: Myc-VPS37A with GST or GST tagged LC3A, LC3B, LC3C, GABARAP, GABARAP-L1 and GABARAP-L2. 2% of input was loaded. 1B, AlphaFold predicted complexes between VPS37^{AdeltaCEV} and GABARAP. 1C, Schematic representation of HaloTag (HT)-LC3B MIL/MPL assay adapted for quantitative high content microscopy (HCM). MIL⁺ profiles, HT-LC3B accessible to membrane impermeant ligand; MPL⁺ profiles, HT-LC3B remaining available (not saturated with MIL) to membrane permeant ligand. 1D, MIL/MPL assay in HeLa^WT and HeLa^HexaKO expressing HT-LC3B, starved in EBSS for 90 min±100 nM BafA1. Cells were sequentially incubated with HT ligands MIL and MPL, and HCM quantification carried out; (d-i) MIL-accessible membrane-bound HT-LC3B; (d-ii) MPL-accessible membrane-bound HT-LC3B (remaining available to MPL after MIL saturation). (d-iii) MIL/MPL puncta ratio. […]

B1: GST-LC3C (other, UniProt Q9BXW4 1-147, looked up)
chain: MPPPQKIPSVRPFKQRKSLAIRQEEVAGIRAKFPNKIPVVVERYPRETFLPPLDKTKFLVPQELTMTQFLSIIRSRMVLRATEAFYLLVNNKSLVSMSATMAEIYRDYKDEDGFVYMTYASQETFGCLESAAPRDGSSLEDRPCNPL
notes: Recombinant, made in E. coli, held on glutathione Sepharose beads; also called GTS-LC3C; not shown: GST tag
- binding result [1]: no binding

B2: GST-GABARAP (other, UniProt O95166 1-117, looked up)
chain: MKFVYKEEHPFEKRRSEGEKIRKKYPDRVPVIVEKAPKARIGDLDKKKYLVPSDLTVGQFYFLIRKRIHLRAEDALFFFVNNVIPPTSATMGQLYQEHHEEDFFLYIAYSDESVYGL
notes: Recombinant, made in E. coli, held on glutathione Sepharose beads; not shown: GST tag
- binding result [1]: no binding

B3: GFP-GABARAP (other, UniProt O95166 1-116, looked up)
chain: MKFVYKEEHPFEKRRSEGEKIRKKYPDRVPVIVEKAPKARIGDLDKKKYLVPSDLTVGQFYFLIRKRIHLRAEDALFFFVNNVIPPTSATMGQLYQEHHEEDFFLYIAYSDESVYG
notes: Expressed in HEK293T cells for Co-IP; also called GFP-GABARAP (GABA); pDest-GFP-GABARAP; not shown: GFP
- binding result [2]: binds

B4: Myc-VPS37A (in vitro translated, [35S]-radiolabeled, full length) (other)
chain: MSWLFPLTKSASSSAAGSPGGLTSLQQQKQRLIESLRNSHSSIAEIQKDVEYRLPFTINNLTININILLPPQFPQEKPVISVYPPIRHHLMDKQGVYVTSPLVNNFTMHSDLGKIIQSLLDEFWKNPPVLAPTSTAFPYLYSNPSGMSPYASQGFPFLPPYPPQEANRSITSLSVADTVSSSTTSHTTAKPAAPSFGVLSNLPLPIPTVDASIPTSQNGFGYKMPDVPDAFPELSELSVSQLTDMNEQEEVLLEQFLTLPQLKQIITDKDDLVKSIEELARKNLLLEPSLEAKRQTVLDKYELLTQMKSTFEKKMQRQHELSESCSASALQARLKVAAHEAEEESDNIAEDFLEGKMEIDDFLSSFMEKRTICHCRRAKEEKLQQAIAMHSQFHAPL
modifications: [35S]-methionine radiolabel
notes: In vitro translated in reticulocyte lysate; also called VPS37A^FL; not shown: Myc tag
- binding result (GST-LC3B): no binding

— patent US20250043285A1 (UNM RAINFOREST INNOVATIONS, published 2025)
